Results reported in patent US20090208416A1.
Each block holds one substance with its values, some of them ahead of it.

Legend:
[1] = biological target: NKG2A on cynomolgus monkey NK cells (cynomolgus monkey) (UniProt Q68VD2); experiment: FACS cynomolgus whole blood, animal R390
[2] = biological target: NKG2A on rhesus monkey (Macaca mulatta) NK cells (rhesus monkey (Macaca mulatta)) (UniProt Q9MZJ3); experiment: FACS rhesus whole blood, animal R00007
[3] = biological target: NKG2A on rhesus monkey (Macaca mulatta) NK cells (rhesus monkey (Macaca mulatta)) (UniProt Q9MZJ3); experiment: FACS rhesus whole blood, animal R99273
[4] = biological target: NKG2A on rhesus monkey (Macaca mulatta) NK cells (rhesus monkey (Macaca mulatta)) (UniProt Q9MZJ3); experiment: FACS rhesus whole blood, animal 34459
[5] = biological target: NKG2A on rhesus monkey (Macaca mulatta) NK cells (rhesus monkey (Macaca mulatta)) (UniProt Q9MZJ3); experiment: FACS rhesus whole blood, animal R00023
[6] = biological target: NKG2A on rhesus monkey (Macaca mulatta) NK cells (rhesus monkey (Macaca mulatta)) (UniProt Q9MZJ3); experiment: FACS rhesus whole blood, animal R00077
[7] = biological target: NKG2A on rhesus monkey (Macaca mulatta) NK cells (rhesus monkey (Macaca mulatta)) (UniProt Q9MZJ3); experiment: FACS rhesus whole blood, animal R00061
[8] = biological target: NKG2A on rhesus monkey (Macaca mulatta) NK cells (rhesus monkey (Macaca mulatta)) (UniProt Q9MZJ3); experiment: FACS rhesus whole blood, animal R00101
[9] = biological target: NKG2A on rhesus monkey (Macaca mulatta) NK cells (rhesus monkey (Macaca mulatta)) (UniProt Q9MZJ3); experiment: FACS rhesus whole blood, animal R00073 (5.6 kg)
[10] = biological target: NKG2A on rhesus monkey (Macaca mulatta) NK cells (rhesus monkey (Macaca mulatta)) (UniProt Q9MZJ3); experiment: FACS rhesus whole blood, animal R00041
[11] = biological target: NKG2A on cynomolgus monkey NK cells (cynomolgus monkey) (UniProt Q68VD2); experiment: FACS cynomolgus whole blood, animal 1221
[12] = biological target: NKG2A on cynomolgus monkey NK cells (cynomolgus monkey) (UniProt Q68VD2); experiment: FACS cynomolgus whole blood, animal AL210
[13] = biological target: NKG2A on rhesus monkey (Macaca mulatta) NK cells (rhesus monkey (Macaca mulatta)) (UniProt Q9MZJ3); experiment: FACS rhesus whole blood, animal R00025
[14] = biological target: NKG2A on cynomolgus monkey NK cells (cynomolgus monkey) (UniProt Q68VD2); experiment: FACS cynomolgus whole blood, animal M859
[15] = biological target: NKG2A on rhesus monkey (Macaca mulatta) NK cells (rhesus monkey (Macaca mulatta)) (UniProt Q9MZJ3); experiment: FACS rhesus whole blood, animal R00085
[16] = biological target: NKG2A on rhesus monkey (Macaca mulatta) NK cells (rhesus monkey (Macaca mulatta)) (UniProt Q9MZJ3); experiment: FACS rhesus whole blood, animal R00099
[17] = biological target: NKG2A on rhesus monkey (Macaca mulatta) NK cells (rhesus monkey (Macaca mulatta)) (UniProt Q9MZJ3); experiment: FACS rhesus whole blood, animal R00093
[18] = biological target: NKG2A on rhesus monkey (Macaca mulatta) NK cells (rhesus monkey (Macaca mulatta)) (UniProt Q9MZJ3); experiment: FACS rhesus whole blood, animal R00073 (6.1 kg)
[19] = biological target: NKG2A on cynomolgus monkey NK cells (cynomolgus monkey) (UniProt Q68VD2); experiment: FACS cynomolgus whole blood, mean of 10 animals
[20] = biological target: NKG2A on rhesus monkey (Macaca mulatta) NK cells (rhesus monkey (Macaca mulatta)) (UniProt Q9MZJ3); experiment: FACS rhesus whole blood, mean over animals
[21] = biological target: NKG2A on rhesus monkey (Macaca mulatta) NK cells (rhesus monkey (Macaca mulatta)) (UniProt Q9MZJ3); experiment: FACS rhesus whole blood, animal 31828
[22] = biological target: NKG2A on rhesus monkey (Macaca mulatta) NK cells (rhesus monkey (Macaca mulatta)) (UniProt Q9MZJ3); experiment: FACS rhesus whole blood, animal R00013
[23] = biological target: NKG2A on cynomolgus monkey NK cells (cynomolgus monkey) (UniProt Q68VD2); experiment: FACS cynomolgus whole blood, animal AK565
[24] = biological target: NKG2A on rhesus monkey (Macaca mulatta) NK cells (rhesus monkey (Macaca mulatta)) (UniProt Q9MZJ3); experiment: FACS rhesus whole blood, animal O967
[25] = biological target: NKG2A on cynomolgus monkey NK cells (cynomolgus monkey) (UniProt Q68VD2); experiment: FACS cynomolgus whole blood, animal T270
[26] = biological target: NKG2A on rhesus monkey (Macaca mulatta) NK cells (rhesus monkey (Macaca mulatta)) (UniProt Q9MZJ3); experiment: FACS rhesus whole blood, animal R00037
[27] = biological target: NKG2A on cynomolgus monkey NK cells (cynomolgus monkey) (UniProt Q68VD2); experiment: FACS cynomolgus whole blood, animal AL389
[28] = biological target: NKG2A on cynomolgus monkey NK cells (cynomolgus monkey) (UniProt Q68VD2); experiment: FACS cynomolgus whole blood, animal AL303
[29] = biological target: NKG2A on cynomolgus monkey NK cells (cynomolgus monkey) (UniProt Q68VD2); experiment: FACS cynomolgus whole blood, animal T788
[30] = biological target: NKG2A on cynomolgus monkey NK cells (cynomolgus monkey) (UniProt Q68VD2); experiment: FACS cynomolgus whole blood, animal AK729
[31] = biological target: NKG2A on rhesus monkey (Macaca mulatta) NK cells (rhesus monkey (Macaca mulatta)) (UniProt Q9MZJ3); experiment: FACS rhesus whole blood, animal R00055

Chain of UniProt Q9MZJ3 (Q9MZJ3 whole entry): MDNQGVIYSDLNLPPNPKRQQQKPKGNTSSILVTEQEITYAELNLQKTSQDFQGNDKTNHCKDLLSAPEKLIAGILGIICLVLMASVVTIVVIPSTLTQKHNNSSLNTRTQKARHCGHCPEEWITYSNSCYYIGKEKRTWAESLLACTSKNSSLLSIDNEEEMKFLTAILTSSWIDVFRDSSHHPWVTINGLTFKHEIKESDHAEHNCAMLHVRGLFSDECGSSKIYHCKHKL
Chain of UniProt Q68VD2 (Q68VD2 entry or part of it): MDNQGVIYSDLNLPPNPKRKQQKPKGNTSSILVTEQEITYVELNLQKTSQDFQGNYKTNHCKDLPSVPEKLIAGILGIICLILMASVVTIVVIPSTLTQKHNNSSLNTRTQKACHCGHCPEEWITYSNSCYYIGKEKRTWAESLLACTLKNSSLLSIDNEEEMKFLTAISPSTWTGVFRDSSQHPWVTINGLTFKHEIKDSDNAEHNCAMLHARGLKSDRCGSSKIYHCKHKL

% NK+ [1]: 99% | MFI [1]: 32.3 | MFI NK+ [1]: 32.6 | % NK+ [2]: 99.6% | MFI [2]: 34.9 | MFI NK+ [2]: 35 | % NK+ [3]: 98% | MFI [3]: 32.7 | MFI NK+ [3]: 33.4 | % NK+ [4]: 96.2% | MFI [4]: 63.8 | MFI NK+ [4]: 66.3 | % NK+ [5]: 96.4% | MFI [5]: 34 | MFI NK+ [5]: 35.3 | % NK+ [6]: 97.1% | MFI [6]: 30.4 | MFI NK+ [6]: 31.3 | % NK+ [7]: 40.7% | MFI [7]: 1.6 | MFI NK+ [7]: 2.4 | % NK+ [8]: 98.7% | MFI [8]: 37.1 | MFI NK+ [8]: 37.6 | % NK+ [9]: 99.1% | MFI [9]: 31.6 | MFI NK+ [9]: 31.9 | % NK+ [10]: 89.6% | MFI [10]: 33.1 | MFI NK+ [10]: 36.9 | % NK+ [11]: 96.7% | MFI [11]: 105 | MFI NK+ [11]: 109 | % NK+ [12]: 92.7% | MFI [12]: 126 | MFI NK+ [12]: 136 | % NK+ [13]: 97.3% | MFI [13]: 30 | MFI NK+ [13]: 30.9 | % NK+ [14]: 95.1% | MFI [14]: 144 | MFI NK+ [14]: 152 | % NK+ [15]: 91.9% | MFI [15]: 68.4 | MFI NK+ [15]: 74.4 | % NK+ [16]: 97.6% | MFI [16]: 31.1 | MFI NK+ [16]: 31.8 | % NK+ [17]: 97.9% | MFI [17]: 81.9 | MFI NK+ [17]: 83.6 | % NK+ [18]: 98% | MFI [18]: 31.9 | MFI NK+ [18]: 32.6 | % NK+ (Mean) [19]: 96.3% | MFI (Mean) [19]: 106 | MFI NK+ (Mean) [19]: 110 | % NK+ (Mean) [20]: 93.2% | MFI (Mean) [20]: 29.6 | MFI NK+ (Mean) [20]: 30.6 | % NK+ [21]: 99.8% | MFI [21]: 101 | MFI NK+ [21]: 101 | % NK+ [22]: 97.8% | MFI [22]: 38.8 | MFI NK+ [22]: 39.7 | % NK+ [23]: 90.7% | MFI [23]: 28.2 | MFI NK+ [23]: 31 | % NK+ [24]: 84.8% | MFI [24]: 62.3 | MFI NK+ [24]: 73.4 | % NK+ [25]: 97.7% | MFI [25]: 113 | MFI NK+ [25]: 116 | % NK+ [26]: 96.9% | MFI [26]: 26.7 | MFI NK+ [26]: 27.5 | % NK+ [27]: 95.5% | MFI [27]: 223 | MFI NK+ [27]: 234 | % NK+ [28]: 99.1% | MFI [28]: 129 | MFI NK+ [28]: 130 | % NK+ [29]: 97% | MFI [29]: 123 | MFI NK+ [29]: 126 | % NK+ [30]: 99.4% | MFI [30]: 37.4 | MFI NK+ [30]: 37.7
Substance: Z199 anti-NKG2A monoclonal antibody

% NK+ [1]: 0.2% | MFI [1]: 0.5 | % NK+ [2]: 0.7% | MFI [2]: 0.4 | % NK+ [3]: 0.6% | MFI [3]: 0.4 | % NK+ [4]: 1.2% | MFI [4]: 0.7 | % NK+ [5]: 0.6% | MFI [5]: 0.3 | % NK+ [6]: 0.5% | MFI [6]: 0.4 | % NK+ [7]: 0.2% | MFI [7]: 0.6 | % NK+ [8]: 0.4% | MFI [8]: 0.5 | % NK+ [9]: 0.39% | MFI [9]: 0.4 | % NK+ [10]: 0.3% | MFI [10]: 0.4 | % NK+ [11]: 1.3% | MFI [11]: 0.8 | % NK+ [12]: 0.3% | MFI [12]: 0.7 | % NK+ [13]: 0.4% | MFI [13]: 0.4 | % NK+ [14]: 0.2% | MFI [14]: 0.6 | % NK+ [15]: 0.3% | MFI [15]: 0.7 | % NK+ [16]: 0.3% | MFI [16]: 0.5 | % NK+ [17]: 0.4% | MFI [17]: 0.6 | % NK+ [18]: 0.3% | MFI [18]: 0.3 | % NK+ (Mean) [19]: 0.4% | MFI (Mean) [19]: 0.7 | % NK+ (Mean) [20]: 0.5% | MFI (Mean) [20]: 0.5 | % NK+ [31]: 0.9% | MFI [31]: 0.6 | % NK+ [21]: 0.5% | MFI [21]: 0.7 | % NK+ [22]: 0.2% | MFI [22]: 0.6 | % NK+ [23]: 0.3% | MFI [23]: 0.6 | % NK+ [24]: 0.5% | MFI [24]: 0.7 | % NK+ [25]: 0.2% | MFI [25]: 0.6 | % NK+ [26]: 0.3% | MFI [26]: 0.5 | % NK+ [27]: 0.4% | MFI [27]: 0.8 | % NK+ [28]: 0.14% | MFI [28]: 0.7 | % NK+ [29]: 0.4% | MFI [29]: 0.6 | % NK+ [30]: 0.3% | MFI [30]: 0.6
Substance: mouse IgG2b isotype control (antibody)
